The text below walks through data of patent publication US7005258 (NATIONAL INSTITUTES OF HEALTH, dated 2006).

The experiment deals with T1, human cdc2 (p34^cdc2, endogenous, HeLa cells) (human, UniProt P06493 1-297).
T1 construct: On p13 beads it is present as cdc2/cyclin B; also called p34^cdc2 kinase
Nature of the experiment: precipitation on p13 beads from HeLa lysate.

T1 sequence (P06493 whole entry): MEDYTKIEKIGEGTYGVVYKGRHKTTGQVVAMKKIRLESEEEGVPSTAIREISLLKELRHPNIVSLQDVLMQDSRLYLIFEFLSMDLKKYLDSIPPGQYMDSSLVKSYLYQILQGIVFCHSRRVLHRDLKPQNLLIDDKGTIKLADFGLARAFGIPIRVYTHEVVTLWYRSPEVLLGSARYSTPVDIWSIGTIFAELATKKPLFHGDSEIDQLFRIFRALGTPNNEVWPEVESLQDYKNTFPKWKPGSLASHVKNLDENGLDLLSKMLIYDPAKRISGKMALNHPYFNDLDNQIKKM

B1: p13 protein encoded by the suc1 gene (other, fission yeast, UniProt P08463 1-113, looked up)
chain: MSKSGVPRLLTASERERLEPFIDQIHYSPRYADDEYEYRHVMLPKAMLKAIPTDYFNPETGTLRILQEEEWRGLGITQSLGWEMYEVHVPEPHILLFKREKDYQMKFSQQRGG
notes: also called p13-Suc1; p13 (Sucl)
For B1, the binding result is reported as “binds”.
